Patent US12258584B2, “Methods and systems for converting precursor cells into intestinal tissues through directed differentiation” (Children's Hospital Medical Center, priority 2010, dated 2025)
Entries after “also recorded” stand apart in the source; their conditions may differ.

Tests used:
Assay type in all cases: cell-based, human
hESC-H9 = experiment: Affymetrix microarray analysis of transcript levels during DE formation; settings: 3-day activin treated vs undifferentiated cultures, label = gene symbol of the transcript
Procedure: (§1) FIGS. 6a and 6b illustrate exemplary embodiments in accordance with the present invention, depicting characterization of DE formation from hESC and iPSC lines by immuno-fluorescence (IF) and Microarray analysis. (a) Undifferentiated hESCs stained with the pluripotency marker OCT4 (green) were treated for 3 days with ActivinA. […] (b) Transcriptional profile of DE induction. hESC-H9 and iPSC lines 3.5, 3.6 and 3.12 were analyzed before and after DE formation (activin differentiation) by Affymetrix DNA microarray analysis.
(§2) For microarray analysis, RNA was isolated from undifferentiated and 3-day activin treated hESC and iPSC cultures and used create target DNA for hybridization to Affymetrix Human 1.0 Gene ST Arrays using standard procedures (Affymetrix, Santa Clara, CA). Independent biological triplicates were performed for each cell line and condition. Affymetrix microarray Cel files were subjected to Robust Multichip Average (RMA) normalization in GeneSpring 10.1. Probe sets were first filtered for those that are overexpressed or underexpressed and then subjected to statistical analysis for differential expression by 3 fold or more between undifferentiated and differentiated cultures with p<0.05 using the Students T-test. Log 2 gene expression ratios were then subjected to hierachical clustering using the standard correlation distance metric as implemented in GeneSpring.

iPSC line 3.12 = experiment: as above; settings: 3-day activin treated vs undifferentiated cultures, label = gene symbol of the transcript
Procedure: as §1, §2

iPSC3.4 = experiment: as above; settings: 3-day activin treated vs undifferentiated cultures, label = gene symbol of the transcript
Procedure: as §2

iPSC-3.5 = experiment: Hindgut spheroid formation from iPSC-3.5 definitive endoderm after growth factor treatment; settings: 500 ng/ml; for Average # organoids per well / Total # organoids (# organoids/wells counted): iPSC-3.5 definitive endoderm
Procedure: (§3) Differentiation of PSCs into Definitive Endoderm (DE). Differentiation into Definitive Endoderm was carried out as previously described. Briefly, a 3 day ActivinA (R&D systems) differentiation protocol was used. Cells were treated with ActivinA (100 ng/ml) for three consecutive days in RPMI 1640 media (Invitrogen) with increasing concentrations of 0%, 0.2%, 2% HyClone defined FBS (dFBS) (Thermo Scientific).
(§4) The following tables illustrate the effects of growth factor treatment of hESCs and iPSCs. Generation of hindgut spheroids was tracked for (Table 1A) days 2-5 following growth factor treatment for H9 hESCs or (Table 1B) days 2-4 of growth factor treatment for iPSCs. Definitive endoderm was treated with either 500 ng/ml of FGF4 alone or 500 ng/ml of FGF4+Wnt3a. For both HESCs and iPSCs, hindgut spheroids formed much more robustly under FGF4+Wnt3a conditions. […] Over the course of 4 days, FGF4+Wnt3a treated H9 endoderm generated an average of 4.5 fold more spheroids than that treated with FGF4 alone.
(§5) Generation of hindgut spheroids was tracked for days 2-5 of growth factor treatment (H9 hESCs, Table 1A) or days 2-4 of growth factor treatment (iPSCs, Table 1B) for endoderm being given either 500 ng/ml FGF4 alone or 500 ng/ml FGF4+Wnt3a. In both cell lines, hindgut spheroids were much more robustly generated in FGF4+Wnt3a conditions. Over the course of 4 days, FGF4+Wnt3a treated H9 endoderm generated an average of 4.5 fold more spheroids than FGF4 treated alone.
(§6) Directed differentiation into hindgut and intestinal organoids. After differentiation into definitive endoderm, cells were incubated in 2% dFBS-DMEM/F12 with either 50 or 500 ng/ml FGF4 and/or 50 or 500 ng/ml Wnt3a (R&D Systems) for 2-4 days. After 2 days with treatment of growth factors, 3-dimensional floating spheroids were present in the culture. 3-dimensional spheroids were transferred into an in vitro system previously described to support intestinal growth and differentiation. Briefly, spheroids were embedded in Matrigel (BD Bioscience #356237) containing 500 ng/ml R-Spondin1 (R&D Systems), 100 ng/ml Noggin (R&D Systems) and 50 ng/ml EGF (R&D Systems). After the Matrigel solidified, media (Advanced DMEM/F12 (Invitrogen) supplemented with L-Glutamine, […], N2 supplement (R&D Systems), B27 supplement (Invitrogen), and Pen/Strep containing growth factors was overlaid and replaced every 4 days.

H9 hESCs = experiment: Hindgut spheroid formation from hESC-H9 definitive endoderm after growth factor treatment; settings: for Average # organoids per well / Total # organoids (# organoids/wells counted): hESC-H9 definitive endoderm
Procedure: as §3, §4, §5, §6

[1] = tested on: H9-HES cells differentiated into definitive endoderm; experiment: Posteriorization of definitive endoderm: foregut (ALB, PDX1) and hindgut (CDX2) marker expression by RT-qPCR and immunofluorescence; settings: DE treated 24-48 hours; up to 500 ng/ml; RT-qPCR relative to no growth factor control
Procedure: Differentiation of DE in Permissive Media (Differentiation Protocol for FIG. 1). After differentiation into definitive endoderm, cells were incubated in DMEM/F12 plus 2% defined fetal bovine serum (dFBS) with either 0, 50, or 500 ng/ml of FGF4 and/or 0, 50, or 500 ng/ml of Wnt3a (R&D Systems) for 6, 48, or 96 hours. Cultures were then grown in permissive media consisting of DMEM plus 10% fetal bovine serum (FBS) for an additional 7 days.
FIGS. 1a through 1d illustrate exemplary embodiments of the present invention. FGF4 and Wnt3a act synergistically in a temporal and dose-dependent manner to specify stable posterior endoderm fate. ActivinA (100 ng/ml) was used to differentiate H9-HES cells into definitive endoderm (DE). DE was treated with the posteriorizing factors FGF4 (50, 500 ng), Wnt3a (50, 500 ng) or both for 6, 48 or 96 hours. Cells were then cultured in a permissive medium without growth factors for an additional seven days and analyzed for expression of foregut markers (ALB, PDX1) and the hindgut marker (CDX2) by RT-qPCR (a) and immunofluorescence (b-d). FGF4/Wnt-mediated changes in marker expression in (a) is relative to 3-day activin treated DE cultures that were grown for identical lengths of time in the absence of FGF4 or Wnt3a (control). […] Error bars denote standard deviation of triplicates. Significance is shown by; * (p<0.05), ^ (p<0.001), # (p<0.0001).
FIGS. 7a and 7b illustrate exemplary embodiments in accordance with the present invention, depicting time and concentration dependent induction of CDX2 by FGF4 and Wnt3a. (a) FGF4 and Wnt3a up-regulate CDX2 in a concentration dependant manner. 3-day ActivinA treated hESCs were treated for 48 hours with Wnt3a at 50 ng/ml or 500 ng/ml or FGF4 at 50 ng/ml or 500 ng/ml, or increasing concentrations of FGF4+Wnt3a. Cells were analyzed after 48 hours of treatment. […] CDX2 expression was normalized to the internal control beta-tubulin, and is shown relative to a 48 hour control cultured in the absence of growth factors. (b) FGF4 and Wnt3a up-regulate CDX2 in a time dependant manner. 48 hours of exposure to FGF4+Wnt3a was required for the most robust induction of CDX2. All time points shown are set relative to a 0 hour no growth factor control. 500 ng/ml of FGF4, Wnt3a or FGF4+Wnt3a was used for all time points. Note that 24 hour and 48 controls, in the absence of growth factors, show a significant and spontaneous up-regulation of CDX2. Error bars denote standard deviation of triplicates. Significance is shown by; * (p<0.05)
RNA was isolated using the Nucleospin II RNA isolation kit (Clonetech). […] Finally, qPCR was carried out using Quantitect SybrGreen MasterMix (Qiagen) on a Chromo4 Real-Time PCR (BioRad). […]

[2] = 500 ng/ml, 2 days (48 h) of GF treatment
[3] = 500 ng/ml, 3 days (72 h) of GF treatment
[4] = 500 ng/ml, 4 days (96 h) of GF treatment
[5] = 500 ng/ml, 5 days (120 h) of GF treatment

With DKK1 the “DIFF'D-H9] VS [IFF'D-H9] (folds), variation of transcript level during DE formation” value (hESC-H9) was 9.66 folds, the “[DIFF'D-IPSC3.12] VS [IFF'D-IPSC3.12] (folds), variation of transcript level during DE formation” value (iPSC line 3.12) was 6.27 folds and the “[Diff'd-iPSC3.4] vs [Undiff d-iPSC3.4] (folds), variation of transcript level during DE formation” value (iPSC3.4) was 7.27 folds.

For NODAL, the “DIFF'D-H9] VS [IFF'D-H9] (folds), variation of transcript level during DE formation” value (hESC-H9) was 5.66 folds, the “[DIFF'D-IPSC3.12] VS [IFF'D-IPSC3.12] (folds), variation of transcript level during DE formation” value (iPSC line 3.12) was 5.77 folds and the “[Diff'd-iPSC3.4] vs [Undiff d-iPSC3.4] (folds), variation of transcript level during DE formation” value (iPSC3.4) was 5.00 folds.

In the case of NPPB, the “DIFF'D-H9] VS [IFF'D-H9] (folds), variation of transcript level during DE formation” value (hESC-H9) is reported as 2.88 folds, the “[DIFF'D-IPSC3.12] VS [IFF'D-IPSC3.12] (folds), variation of transcript level during DE formation” value (iPSC line 3.12) is reported as 3.62 folds and the “[Diff'd-iPSC3.4] vs [Undiff d-iPSC3.4] (folds), variation of transcript level during DE formation” value (iPSC3.4) is reported as 3.57 folds.

B1: FGF4: fibroblast growth factor 4, soluble growth factor (R&D Systems) known to posteriorize endoderm (protein, UniProt P08620 31-206, looked up)
Fibroblast growth factor 4: APTAPNGTLEAELERRWESLVALSLARLPVAAQPKEAAVQSGAGDYLLGIKRLRRLYCNVGIGFHLQALPDGRIGGAHADTRDSLLELSPVERGVVSIFGVASRFFVAMSSKGKLYGSPFFTDECTFKEILLPNNYNAYESYKYPGMFIALSKNGKTKKGNRVSPTMKVTHFLPRL
With B1 the “Average # organoids per well” value (iPSC-3.5; 2 days (48 h) of GF treatment) was 0, the “Total # organoids (# organoids/wells counted)” value (iPSC-3.5; 2 days (48 h) of GF treatment) was 0/4 and the “Average # organoids per well” value (iPSC-3.5; 3 days (72 h) of GF treatment) was 2.5. The “Total # organoids (# organoids/wells counted)” value (iPSC-3.5; 3 days (72 h) of GF treatment) was 10/4, the “Average # organoids per well” value (iPSC-3.5; 4 days (96 h) of GF treatment) was 3.5 and the “Total # organoids (# organoids/wells counted)” value (iPSC-3.5; 4 days (96 h) of GF treatment) was 14/4. For the same molecule, the “CDX2 staining of spheroids / 3D structures” value (H9 hESCs; CDX2 immunostaining of treated DE cultures) was “weakly CDX2+”, the “fold fewer spheroids generated (versus FGF4+Wnt3a treated cultures)” value (H9 hESCs; Table 1A, H9 hESC definitive endoderm) was 4-10 fold and the “Average # organoids per well” value (H9 hESCs; [2]) was 0. For the same molecule, the “Total # organoids (# organoids/wells counted)” value (H9 hESCs; [2]) was 0/5, the “Average # organoids per well” value (H9 hESCs; [3]) was 0 and the “Total # organoids (# organoids/wells counted)” value (H9 hESCs; [3]) was 0/5. For the same molecule, the “Average # organoids per well” value (H9 hESCs; [4]) was 8.8, the “Total # organoids (# organoids/wells counted)” value (H9 hESCs; [4]) was 44/5 and the “Average # organoids per well” value (H9 hESCs; [5]) was 4.75. For the same molecule, the “Total # organoids (# organoids/wells counted)” value (H9 hESCs; [5]) was 19/4 and the “induction of hindgut marker CDX2 expression / posterior fate” value [1] was “neither factor alone was sufficient to robustly promote a posterior fate; also recorded: modest changes in CDX2 expression”.

B2: Wnt3a: soluble Wnt ligand (R&D Systems), growth factor known to posteriorize endoderm (protein, UniProt P56704 19-352, looked up)
Protein Wnt-3a: SYPIWWSLAVGPQYSSLGSQPILCASIPGLVPKQLRFCRNYVEIMPSVAEGIKIGIQECQHQFRGRRWNCTTVHDSLAIFGPVLDKATRESAFVHAIASAGVAFAVTRSCAEGTAAICGCSSRHQGSPGKGWKWGGCSEDIEFGGMVSREFADARENRPDARSAMNRHNNEAGRQAIASHMHLKCKCHGLSGSCEVKTCWWSQPDFRAIGDFLKDKYDSASEMVVEKHRESRGWVETLRPRYTYFKVPTERDLVYYEASPNFCEPNPETGSFGTRDRTCNVSSHGIDGCDLLCCGRGHNARAERRREKCRCVFHWCCYVSCQECTRVYDVHTCK
With B2 the spheroid formation (iPSC-3.5; iPSC definitive endoderm) was “never formed spheroids”, the “in vitro gut-tube morphogenesis / spheroid formation” value (H9 hESCs; hESC definitive endoderm, 500 ng/ml) was “never observed; also recorded: never formed spheroids; also recorded: not observed” and the “induction of hindgut marker CDX2 expression / posterior fate” value [1] was “neither factor alone was sufficient to robustly promote a posterior fate; also recorded: modest changes in CDX2 expression”.
